Measured values reported in the supplement of paper PMC9170038.

Test system: MS2 coat protein
Experiment: apparent KD of MS2 coat protein; designed switch direction (-1 OFF switch, 1 ON switch): -1; higher = weaker reporter binding
Summary of the method: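 Designed RNA switches with common flanks were transcribed on Illumina chips by stalled E. coli RNA polymerase and titrated with SNAP-549-labelled MS2 coat protein, from 0.7 or 1.5 nM doubling to 3 µM, in Tris-HCl pH 7.5 buffer with KCl, MgCl2, BSA, DTT, tRNA and Tween-20. Steps lasted 0.8–1.5 h (lowest) to 10–20 min (highest). Titrations ran without input, with 200 uM small-molecule ligand, or with an oligonucleotide input. Normalised cluster fluorescence was curve-fitted, and apparent KD is the per-design median over clusters.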

[1] = Eterna round: R95, input ligand: microRNA oligo, concentration not stated
[2] = input ligand: microRNA oligo, concentration not stated
[3] = Eterna round: R95, input ligand: FMN 200 uM
[4] = Eterna round: R95, input ligand: none

With “CCGAAUAAGCAGGAUAUCGUAUCGGAAACGAUACGAGAAGGGUUAACAUGAGGAUCACCCAUGUUCCUUAACGG [Fiskers Ex 6 - 17] (puzzle: Exclusion 6)” the “apparent KD of MS2 coat protein” value [1] was 0.0174 µM.
“AGUCAGGCGGUAGGAUAUCCAUAUCGAGUGACCCUUUCAUAACAUGAGGAUCACCCAUGUCGGUGGGAGAAGGGCCGUAAGGCA [Mat - Exclusion NG 2 - Mod of JL - D69] (Eterna round: R96, puzzle: Exclusion NG 2)” was tested, and the “apparent KD of MS2 coat protein” value (input ligand: FMN 200 uM) was 0.0536 µM, the “apparent KD of MS2 coat protein” value [2] was 0.0305 µM and the “apparent KD of MS2 coat protein” value (input ligand: none) was 0.0411 µM.
With “GAACGUGGUGAGGAUAUCCGGUCUAACGUGCCAGGAGAAGGCGCCACAUGAGGAUCACCCAUGUGGGUCCCGCC [EX6 B.9] (Eterna round: R97, puzzle: Exclusion 6)” the “apparent KD of MS2 coat protein” value (input ligand: FMN 200 uM) was 0.026 µM and the “apparent KD of MS2 coat protein” value (input ligand: none) was 0.0149 µM.
For “UUAUCAUGCUUUAGAUCCUACAUGAGGAUCACCCAUGUGCUCGUCUUGUAUCGUUCUGUGUCGUAAGUCUCUGUUCG [mod Jandersonlee designer] (Eterna round: R97, puzzle: Sensor, turn-off variant 1)”, the “apparent KD of MS2 coat protein” value (input ligand: FMN 200 uM) was 0.924 µM and the “apparent KD of MS2 coat protein” value (input ligand: none) was 1.39 µM.
In the case of “GUCCUACAUGAGGAUCACCCAUGUGAGGAUAUGCGAUUAGCUGCUAGGUAGUUAGUAUGUAGAAGGCGCAUGAA [EX1 #77] (Eterna round: R97, puzzle: Exclusion 1)”, the “apparent KD of MS2 coat protein” value (input ligand: FMN 200 uM) is reported as 0.0159 µM and the “apparent KD of MS2 coat protein” value (input ligand: none) is reported as 0.0146 µM.
For “CGCAACACAUGAGGAUCAAACAUGAGGAUCACCCAUGUAUAACAAGCUUUUUGCUCGUCUUAUAAAUAUGUGUUGCG [Electric Eye 2 - Jieux - Sensor, turn-off variant 1] (Eterna round: R97, puzzle: Sensor, turn-off variant 1)”, the “apparent KD of MS2 coat protein” value (input ligand: FMN 200 uM) was 0.0169 µM and the “apparent KD of MS2 coat protein” value (input ligand: none) was 0.00913 µM.
In the case of “AACAAACAUGAGGAUCACCCAUGUGAGGAUAUGCAACAAAACAAAACAAAACAAAACAGCAGAAGGCACACAAC [A-G Solution By Eric] (puzzle: Exclusion 1)”, the “apparent KD of MS2 coat protein” value [3] is reported as 0.0172 µM, the “apparent KD of MS2 coat protein” value [1] is reported as 0.0192 µM and the “apparent KD of MS2 coat protein” value [4] is reported as 0.0146 µM.
In the case of “UAUAUAUAGUAAGGAUAUGUAUUAUUUUUAUAAACAGAAGGUACUGACAUGAGGAUCACCCAUGUUUUAGUGUGGGCAUGUAGA [JMF's solution 73] (Eterna round: R96, puzzle: Exclusion NG 1)”, the “apparent KD of MS2 coat protein” value [2] is reported as 0.0369 µM.
For “UUAUAGUUAGAGGAUAUAUUAAGGUAUGCUUUGAUAGAAGGCUAGACAUGAGGAUCACCCAUGUAUAUUGGGAU [JR_Ex6_Sub075] (Eterna round: R97, puzzle: Exclusion 6)”, the “apparent KD of MS2 coat protein” value (input ligand: FMN 200 uM) was 0.425 µM and the “apparent KD of MS2 coat protein” value (input ligand: none) was 0.22 µM.
“UUUAAUUUUUUUUUUUUACAAGCUUUUUGCUCGUCUUAUACAUGAGGAUCACCCAUGUGGGUGAAAGGUAAAUUAUC [JMF 64] (puzzle: Sensor v3, turn-off variant 2)” was tested, and the “apparent KD of MS2 coat protein” value [3] was 0.0467 µM, the “apparent KD of MS2 coat protein” value [1] was 0.021 µM and the “apparent KD of MS2 coat protein” value [4] was 0.0542 µM.
For “GAUAGGACGUGGUCAGGUAACAUGAGGAUCACCCAUGUAGGUCUAGGAACAAGCUUUUUGAAAGCUCGUCUUAUAAA [JR_SV3TOV1_Sub056] (puzzle: Sensor v3, turn-off variant 1)”, the “apparent KD of MS2 coat protein” value [3] was 0.0174 µM, the “apparent KD of MS2 coat protein” value [1] was 0.0189 µM and the “apparent KD of MS2 coat protein” value [4] was 0.0212 µM.
For “UGAGUGCUGCGAGGAUAUACAUGAGGAUCACCCAUGUAAUCGUGUGAGGCUUUGCCUCACACGAAGUAGAAGGCGCAGUACUCU [JL ENG2 1.10] (Eterna round: R96, puzzle: Exclusion NG 2)”, the “apparent KD of MS2 coat protein” value (input ligand: FMN 200 uM) was 0.012 µM, the “apparent KD of MS2 coat protein” value [2] was 0.00984 µM and the “apparent KD of MS2 coat protein” value (input ligand: none) was 0.0135 µM.
“AUAUUAACAUAGGAUAUCGAAUAAAUUAUUUAACGAGAAGGAUGAACAUGAGGAUCACCCAUGUGGUAUCAUGG [Mat - Exclusion 6 - JL Mod - D29] (puzzle: Exclusion 6)” was tested, and the “apparent KD of MS2 coat protein” value [3] was 0.153 µM, the “apparent KD of MS2 coat protein” value [1] was 0.236 µM and the “apparent KD of MS2 coat protein” value [4] was 0.411 µM.
With “AUUUAACAUGAGGAUCACCCAUGUGAGGAUAUGUCCAUAUUCGGCAAAUCGGAUAUGGACAGAAGGCACACCGG [JR_Exclusion1_Sub008] (puzzle: Exclusion 1)” the “apparent KD of MS2 coat protein” value [1] was 0.139 µM.
In the case of “UAGCAUUGCCUUUGGUAGUGCUUUACAUGAGGAUCACCCAUGUAGGAUAUGGUAGGCUUUGCUUACCAGAAGGACAUGAUAAUU [JL ENG3 1.04] (Eterna round: R96, puzzle: Exclusion NG 3)”, the “apparent KD of MS2 coat protein” value [2] is reported as 0.0523 µM.
For “ACCAUGUCAGGAUAUGCCCGUGUUCGAUCCGAGAAACACGAGCAGAAGGGACAUGAGGAUCACCCAUGUCCAAG [Eternabot (Original) Solution 1] (Eterna round: R97, puzzle: Exclusion 4)”, the “apparent KD of MS2 coat protein” value (input ligand: FMN 200 uM) was 0.0452 µM and the “apparent KD of MS2 coat protein” value (input ligand: none) was 0.0162 µM.
In the case of “AGGAUGUUAGGAUAUGCUAGAGUACUACAGAGUACUACGGAGCAGAAGGAACAUGAGGAUCACCCAUGUCACCU [Exclusion 4 R4 S1] (Eterna round: R97, puzzle: Exclusion 4)”, the “apparent KD of MS2 coat protein” value (input ligand: FMN 200 uM) is reported as 0.0199 µM and the “apparent KD of MS2 coat protein” value (input ligand: none) is reported as 0.014 µM.
With “CGGGAGGGACAAGCUUUUUGCACGUCUGUUAUUGAUGCUACAUGAGGAUCACCCAUGUUUAAGAUGUGUGAGGAUGG [JR_SV3TOV2_Sub053] (puzzle: Sensor v3, turn-off variant 2)” the “apparent KD of MS2 coat protein” value [3] was 0.0262 µM, the “apparent KD of MS2 coat protein” value [1] was 0.0576 µM and the “apparent KD of MS2 coat protein” value [4] was 0.0313 µM.
For “CCGAGGAAGCGGUCCUAUGACAUGAGGAUCACCCAUGUACCUCGCUACGAGCUUUUUGCUCGUCUUAUAAUUCUCGG [Mat - Sensor v3 - turn-off var 1 - JL Mod - D28] (puzzle: Sensor v3, turn-off variant 1)”, the “apparent KD of MS2 coat protein” value [3] was 0.0242 µM and the “apparent KD of MS2 coat protein” value [1] was 0.0655 µM.
For “AACUAGGCAGGAUAUACAUGAGGAUCACCCAUGUGCCAAUACAAAGGGACUAACAGAGGUAGAAGGGCCUAGAA [ChP 13.04.2015 #2] (puzzle: Exclusion 3)”, the “apparent KD of MS2 coat protein” value [3] was 0.155 µM, the “apparent KD of MS2 coat protein” value [1] was 0.0368 µM and the “apparent KD of MS2 coat protein” value [4] was 0.0343 µM.
With “UGAUCUAGCGGAGGAUAUACAUGAGGAUCACCCAUGUAAGUCGCCUUACCGUAGUGAAGCAUCAUGUAGAAGGCCGCUAGAUCU [MOD4 ENG2 3.62 by JL (unstable but ms2 present in dot)] (Eterna round: R96, puzzle: Exclusion NG 2)” the “apparent KD of MS2 coat protein” value (input ligand: FMN 200 uM) was 0.153 µM, the “apparent KD of MS2 coat protein” value [2] was 0.0199 µM and the “apparent KD of MS2 coat protein” value (input ligand: none) was 0.0573 µM.
In the case of “CCUCCACAGUAGGAUAUCAUCAAACUAUUGUGAUGAGAAGGACUGACAUGAGGAUCACCCAUGUUAACGUGAUG [Mod of Brourd 7 - Jieux - Exclusion 6] (Eterna round: R97, puzzle: Exclusion 6)”, the “apparent KD of MS2 coat protein” value (input ligand: FMN 200 uM) is reported as 0.0253 µM and the “apparent KD of MS2 coat protein” value (input ligand: none) is reported as 0.0229 µM.
With “UUCAUGUGAGGAUAUGUGAUCUGCUUUCUGUUUAGAUGAUCACAGAAGGCACAUGAGGAUCACCCAUGUAGAUC [Ex4 - 3 - 30] (puzzle: Exclusion 4)” the “apparent KD of MS2 coat protein” value [1] was 0.0605 µM.
For “GGAAAGUGAGGAUAUGGUAAUUUAAUUAUUAAUUAAUUAAUCCAGAAGGCACAUGAGGAUCACCCAUGUAAAGG [Mat - Exclusion 4 - D92] (puzzle: Exclusion 4)”, the “apparent KD of MS2 coat protein” value [1] was 0.0307 µM.
In the case of “UUAUACGGUGAGGAUAUCUCCACUAAAGUGUGAAGAGAAGGCGCUACAUGAGGAUCACCCAUGUCUAUGGGCAG [Ex-6 Malc#16] (puzzle: Exclusion 6)”, the “apparent KD of MS2 coat protein” value [3] is reported as 0.905 µM, the “apparent KD of MS2 coat protein” value [1] is reported as 0.262 µM and the “apparent KD of MS2 coat protein” value [4] is reported as 0.32 µM.
